Assay results taken from US20190367619A1 (ARGENX, published 2019).

Tests used:
[1] = molecular target: T1, cynomolgus galectin-10-His, WGS isoform (cynomolgus); assay: SPR Biacore (summary table)
T1 construct: also called cynoGal10-WGS; not shown: His tag
T1 chain: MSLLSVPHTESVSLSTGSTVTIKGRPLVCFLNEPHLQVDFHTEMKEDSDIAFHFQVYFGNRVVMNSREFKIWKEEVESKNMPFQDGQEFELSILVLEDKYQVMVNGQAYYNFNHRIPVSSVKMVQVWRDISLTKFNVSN
Description: (§1) The binding properties of the scFv-human Fc panel to galectin-10 were analyzed on the Biacore T3000. For this purpose, a CM5 Chip was coated with polyclonal anti-human Fc at 8000 RU, then a fixed concentration of the scFv-human Fc panel (1.5 μg/mL) were captured to reach a binding signal around 150 RU. Finally, a serial dilution of human or cynomolgus WGS isoform of galectin-10-His (serial dilution, 1 over 2 from 5 μg/mL, 6 points of dilution) was injected. Raw data were analyzed via BIA evaluation software with a blank subtraction (4-3). Finally, the kd/KD and Rmax of each scFv-human Fc to galectin-10-His was determined using the Fit Kinetics simultaneous ka/kd/Binding with mass transfer/Local Rmax on BIA evaluation software.

human galectin-10-His [2] = molecular target: T2, human galectin-10-His (human); assay: SPR Biacore (summary table)
T2 construct: The last M of the tag may be Met1 of galectin-10; also called humanGal10-His; hGal10
T2 chain: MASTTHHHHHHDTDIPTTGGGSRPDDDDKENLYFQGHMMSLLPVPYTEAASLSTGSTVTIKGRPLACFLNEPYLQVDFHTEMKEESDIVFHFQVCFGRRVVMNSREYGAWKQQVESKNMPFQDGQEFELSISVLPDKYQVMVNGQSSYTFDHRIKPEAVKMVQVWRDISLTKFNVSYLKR
Description: as §1

[3] = molecular target: T1, cynomolgus galectin-10-His, WGS isoform; assay: binding ELISA (summary table)
Description: (§2) In a similar setup to that used during the initial screening, the relative binding properties of the 11 new scFv-human Fc clones were analyzed by ELISA. Briefly, a Maxisorp plate was coated overnight with human or cynomolgus WGS or YRT isoforms of galectin-10-His at 0.2 μg/mL and blocked with PBS 1% casein, before being incubated with a serial dilution of the scFv-human Fc fusion molecules (from 100 nM, dilution 1/5, 8 points of dilutions). After several washing steps, detection of the bound scFv-human Fc was carried out with an anti-human Fc-HRP antibody (Jackson ImmunoResearch, Catalog 109-035-008). Absorbance was measured at 450 nm (reference at 620 nm) with Tecan instrument. Finally, the raw data (OD values) were plotted on GraphPad Prism 7.01. The EC50 values of each clone, calculated with a non-linear regression (log(agonist) vs. response Variable slope (four parameters)) are reported in Table 19 below. As a positive control, clone 6F05 from the previous galectin-10 antibody panel was included.

human galectin-10-His [4] = molecular target: T2, human galectin-10-His; assay: binding ELISA (summary table)
Description: as §2

[5] = molecular target: T3, cynomolgus galectin-10-His, YRT isoform (cynomolgus); assay: binding ELISA (summary table)
T3 construct: also called cynoGal10-YRT; not shown: His tag
T3 chain: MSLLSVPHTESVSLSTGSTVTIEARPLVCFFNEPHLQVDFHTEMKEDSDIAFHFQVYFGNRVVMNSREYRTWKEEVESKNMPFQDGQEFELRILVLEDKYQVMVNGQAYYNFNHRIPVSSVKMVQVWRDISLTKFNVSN
Description: as §2

[6] = molecular target: T1, cynomolgus galectin-10-His, WGS isoform; assay: ELISA, coated antigen 0.2 ug/mL
Description: as §2

human galectin-10-His [7] = molecular target: T2, human galectin-10-His; assay: ELISA, coated antigen 0.2 ug/mL
Description: as §2

[8] = molecular target: T3, cynomolgus galectin-10-His, YRT isoform; assay: ELISA, coated antigen 0.2 ug/mL
Description: as §2

[9] = molecular target: T1, cynomolgus galectin-10-His, WGS isoform; assay: SPR Biacore T3000, scFv-human Fc captured
Description: as §1

human galectin-10-His [10] = molecular target: T2, human galectin-10-His; assay: SPR Biacore T3000, scFv-human Fc captured
Description: as §1

B1: 8H11 scFv-human Fc (Fc fusion)
scFv: ELQLVESGGGLVQPGGSLRLSCAASGFTFSTNYMNWVRQAPGKGLEWVSGITSGGGRTYYADSVKGRFTISRDNAKNTLYLQMNSLKPEDTALYYCARTDHAWLDAWGQGTLVTVSSGGGGSGGGGSGGGGSQAGLTQPPSVSGTLGKTVTISCAGTSSDVGYGNYVSWYQQLPGTAPKLLIYAVSTRASGIPDRFSGSKSGNTASLTISGLLSEDEADYYCASYRSSNNYVFGGGTKLTVL
notes: also called 008H11; not shown: CH2-CH3 constant domains of human IgG1 (pUPEX50 scFv-Fc fusion vector)
Kd [1]: 900 pM
koff [1]: 0.00161 s⁻¹
kon [1]: 1.75e+06 M⁻¹ s⁻¹
Kd (human galectin-10-His [2]): 1800 pM
koff (human galectin-10-His [2]): 0.00082 s⁻¹
kon (human galectin-10-His [2]): 453000 M⁻¹ s⁻¹
EC50 [3]: 130 pM
EC50 (human galectin-10-His [4]): 180 pM
EC50 [5]: 100 pM
Bmax [6]: 3.1 OD
EC50 [6]: 130 pM
Bmax (human galectin-10-His [7]): 2.3 OD
EC50 (human galectin-10-His [7]): 180 pM
Bmax [8]: 3.1 OD
EC50 [8]: 100 pM
Kd [9]: 900 pM
koff [9]: 0.00161 s⁻¹
kon [9]: 1.75e+06 M⁻¹ s⁻¹
Kd (human galectin-10-His [10]): 1800 pM
koff (human galectin-10-His [10]): 0.00082 s⁻¹
kon (human galectin-10-His [10]): 453000 M⁻¹ s⁻¹

B2: 10B02 scFv-human Fc (Fc fusion)
scFv: QVQLVESGGGLVQPGGSLRVSCAASGFTFSYHYMNWVRQAPGKGLEWVSGISAGGGRTYYADSVKGRFTISRDNAKNTLYLQMNSLNAEDTALYYCARVHGITNDYWGQGTQVTVSSGGGGSGGGGSGGGGSQSALTQPPSVSGSPGKTVTISCAGTSSDVGYGNYVSWYQQLPGMAPKLLIYEVNKRASGITDRFSGSKSGNTAFLTISGLQSEDEADYYCASYRNSNNWVFGGGTHLTVL
notes: also called 010B02; not shown: CH2-CH3 constant domains of human IgG1 (pUPEX50 scFv-Fc fusion vector)
Kd [1]: 1000 pM
koff [1]: 0.0008 s⁻¹
kon [1]: 770000 M⁻¹ s⁻¹
Kd (human galectin-10-His [2]): 1600 pM
koff (human galectin-10-His [2]): 0.00081 s⁻¹
kon (human galectin-10-His [2]): 500000 M⁻¹ s⁻¹
EC50 [3]: 50 pM
EC50 (human galectin-10-His [4]): 90 pM
EC50 [5]: 50 pM
Bmax [6]: 3.3 OD
EC50 [6]: 50 pM
Bmax (human galectin-10-His [7]): 2.2 OD
EC50 (human galectin-10-His [7]): 90 pM
Bmax [8]: 3.2 OD
EC50 [8]: 50 pM
Kd [9]: 1000 pM
koff [9]: 0.0008 s⁻¹
kon [9]: 770000 M⁻¹ s⁻¹
Kd (human galectin-10-His [10]): 1600 pM
koff (human galectin-10-His [10]): 0.00081 s⁻¹
kon (human galectin-10-His [10]): 500000 M⁻¹ s⁻¹

B3: 10D02 scFv-human Fc (Fc fusion)
scFv: EVQLVESGGGLVQPGGSLRVSCAASGFTFSSYYMSWVRQAPGKGLEWVSGIVTGGGRTHYTDSVKGRFTITRDNAKNTLYLQMNSLRPEDTALYYCARVNGVVTNYDYWGQGTQVTVSSGGGGSGGGGSGGGGSQAVLTQPPSVSGSPGKTVTISCAGTSSDVGYGNYVSWYQQLPGMAPKLLIYDVNKRASGITDRFSGSKSGNTASLTISGLQSEDEADYFCASYRSPNNVVFGQGTHLTVL
notes: also called 010D02; not shown: CH2-CH3 constant domains of human IgG1 (pUPEX50 scFv-Fc fusion vector)
Kd [1]: 2700 pM
koff [1]: 0.00122 s⁻¹
kon [1]: 450000 M⁻¹ s⁻¹
Kd (human galectin-10-His [2]): 2000 pM
koff (human galectin-10-His [2]): 0.00066 s⁻¹
kon (human galectin-10-His [2]): 340000 M⁻¹ s⁻¹
EC50 [3]: 1120 pM
EC50 (human galectin-10-His [4]): 560 pM
EC50 [5]: 1400 pM
Bmax [6]: 3.1 OD
EC50 [6]: 1120 pM
Bmax (human galectin-10-His [7]): 1.9 OD
EC50 (human galectin-10-His [7]): 560 pM
Bmax [8]: 2 OD
EC50 [8]: 1400 pM
Kd [9]: 2700 pM
koff [9]: 0.00122 s⁻¹
kon [9]: 450000 M⁻¹ s⁻¹
Kd (human galectin-10-His [10]): 2000 pM
koff (human galectin-10-His [10]): 0.00066 s⁻¹
kon (human galectin-10-His [10]): 340000 M⁻¹ s⁻¹

B4: 11F12 scFv-human Fc (Fc fusion)
scFv: QVQLQESGGGLVQPGGSLRLSCAASGFTFSTNYMNWVRQAPGKGLEWVSGITSGGGRTYYADSVKGRFTISRDNAKNTLYLQMNSLKPEDTALYYCARTDHAWLDAWGQGTLVTVSSGGGGSGGGGSGGGGSHSAVTQPPSVSGTLGKTVTISCAGTSSDVGYGNYVSWYQHLPGTAPKLLIYAVSTRASGVPDRFSGSKSGNTASLTISGLQSEDEGDYYCASYSVRNNVVFGGGTRLTVL
notes: also called 011F12; not shown: CH2-CH3 constant domains of human IgG1 (pUPEX50 scFv-Fc fusion vector)
Kd (human galectin-10-His [2]): 2300 pM
koff (human galectin-10-His [2]): 0.00072 s⁻¹
kon (human galectin-10-His [2]): 320000 M⁻¹ s⁻¹
EC50 (human galectin-10-His [4]): 560 pM
EC50 [5]: 240 pM
Bmax (human galectin-10-His [7]): 1.8 OD
EC50 (human galectin-10-His [7]): 560 pM
Bmax [8]: 3 OD
EC50 [8]: 240 pM
Kd (human galectin-10-His [10]): 2300 pM
koff (human galectin-10-His [10]): 0.00072 s⁻¹
kon (human galectin-10-His [10]): 320000 M⁻¹ s⁻¹
